Among the targets are HLA-A*11:01; HLA-A*33:01; HLA-A*31:01; HLA-A*68:01; HLA-A*03:01.
Assay in all cases: IEDB peptide-MHC binding, purified MHC/competitive/radioactivity; filed as Kd, often an IC50 or EC50 that approximates it; ≥ and ≤ were set here for values at or beyond the usual limits of such assays
The mark [1] stands for this setting: source organism: SARS coronavirus Tor2.
The mark [2] stands for this setting: source organism: Vaccinia virus WR.
Where [3] appears, read: source organism: Vaccinia virus Copenhagen.
The mark [4] stands for this setting: source organism: Lassa virus Josiah.
The mark [5] stands for this setting: source organism: Triticum aestivum.

Where only a bound is given, the exact number is not on record here.

By Kd is commonly meant the concentration at which binding is half-saturated. For VQIDRLITGR, the Kd was determined as 3020 nM with HLA-A*11:01 (setting [1]); 912 nM with HLA-A*33:01 (setting [1]); 43.6 nM with HLA-A*31:01 (setting [1]); 1030 nM with HLA-A*68:01 (setting [1]); 1990 nM with HLA-A*03:01 (setting [1]).
For the sequence LVFNSISAR, the Kd with HLA-A*11:01 (setting [2]) came out at 27 nM; with HLA-A*33:01 (setting [2]), 1040 nM; in the assay with HLA-A*31:01 (setting [2]), 2.5 nM; with HLA-A*68:01 (setting [2]), 143 nM; with HLA-A*03:01 (setting [2]), 4.22 nM.
With TLVPQEHYVR, the Kd worked out at 436 nM with HLA-A*11:01 (setting [1]); 1910 nM with HLA-A*33:01 (setting [1]); 989 nM with HLA-A*31:01 (setting [1]); 445 nM in the assay with HLA-A*68:01 (setting [1]); 130 nM with HLA-A*03:01 (setting [1]).
STSPTRTWK: the Kd in the assay with HLA-A*11:01 (setting [3]) was 0.803 nM; in the assay with HLA-A*33:01 (setting [3]), 6520 nM; with HLA-A*31:01 (setting [3]) it was 36.2 nM; with HLA-A*68:01 (setting [3]) it was 5.87 nM; with HLA-A*03:01 (setting [3]) it was 6.72 nM.
ISRDELWAR: the Kd was at least 22200 nM with HLA-A*11:01 (setting [2]); 1.69 nM with HLA-A*33:01 (setting [2]); 47.8 nM with HLA-A*31:01 (setting [2]); 946 nM in the assay with HLA-A*68:01 (setting [2]); at least 78000 nM with HLA-A*03:01 (setting [2]).
Regarding KSVLDIISSK, the equilibrium dissociation constant (Kd) with HLA-A*11:01 (setting [3]) is 8.96 nM; with HLA-A*33:01 (setting [3]), 19900 nM; in the assay with HLA-A*31:01 (setting [3]), 152 nM; with HLA-A*68:01 (setting [3]), 267 nM; with HLA-A*03:01 (setting [3]), 24.5 nM.
For the sequence GSYIALDSGR, the Kd is 150 nM in the assay with HLA-A*11:01 (setting [4]); 1160 nM with HLA-A*33:01 (setting [4]); 78.3 nM with HLA-A*31:01 (setting [4]); 276 nM with HLA-A*68:01 (setting [4]); 4230 nM with HLA-A*03:01 (setting [4]).
For CFKEASFSKR, the Kd with HLA-A*11:01 (setting [2]) is at least 43600 nM; in the assay with HLA-A*33:01 (setting [2]), 61.4 nM; in the assay with HLA-A*31:01 (setting [2]), 35.9 nM; with HLA-A*68:01 (setting [2]), 1640 nM; in the assay with HLA-A*03:01 (setting [2]), 9160 nM.
Consider LTTHCTKLR, for which the Kd with HLA-A*11:01 (setting [2]) was at least 77900 nM; with HLA-A*33:01 (setting [2]) it was 4530 nM; with HLA-A*31:01 (setting [2]) it was 8510 nM; with HLA-A*68:01 (setting [2]), 300 nM; with HLA-A*03:01 (setting [2]) it was at least 78000 nM.
Take QQQQQQQQK: the Kd with HLA-A*11:01 (setting [5]) is 845 nM; with HLA-A*33:01 (setting [5]) it was at least 56400 nM; in the assay with HLA-A*31:01 (setting [5]), 5380 nM; with HLA-A*68:01 (setting [5]) it was at least 31300 nM; with HLA-A*03:01 (setting [5]), 2110 nM.
With RSLQTIASK, the Kd is 7.32 nM with HLA-A*11:01 (setting [2]); at least 77700 nM with HLA-A*33:01 (setting [2]); 4.3 nM in the assay with HLA-A*31:01 (setting [2]); 187 nM in the assay with HLA-A*68:01 (setting [2]); 1.5 nM with HLA-A*03:01 (setting [2]).
In the case of ALKYLPIDK, the Kd was 878 nM with HLA-A*11:01 (setting [1]); at least 48500 nM in the assay with HLA-A*33:01 (setting [1]); 6570 nM with HLA-A*31:01 (setting [1]); 2370 nM in the assay with HLA-A*68:01 (setting [1]); 299 nM with HLA-A*03:01 (setting [1]).
In the case of SLLSLREVK, the dissociation constant (Kd) with HLA-A*11:01 (setting [1]) turned out to be 21.2 nM; in the assay with HLA-A*33:01 (setting [1]), 8140 nM; with HLA-A*31:01 (setting [1]), 187 nM; in the assay with HLA-A*68:01 (setting [1]), 1190 nM; in the assay with HLA-A*03:01 (setting [1]), 249 nM.
YQSFLFWFLK: the Kd with HLA-A*11:01 (setting [2]) turned out to be 0.706 nM; in the assay with HLA-A*33:01 (setting [2]), 3990 nM; with HLA-A*31:01 (setting [2]), 18.4 nM; with HLA-A*68:01 (setting [2]), 8.31 nM; with HLA-A*03:01 (setting [2]) it was 20.6 nM.
Take AFQHQNSKK: the Kd was 3000 nM with HLA-A*11:01 (setting [1]); at least 22600 nM with HLA-A*33:01 (setting [1]); 672 nM with HLA-A*31:01 (setting [1]); 3920 nM with HLA-A*68:01 (setting [1]); 13900 nM with HLA-A*03:01 (setting [1]).
Take RSLQTIASKK: the Kd is 22.5 nM in the assay with HLA-A*11:01 (setting [2]); at least 70000 nM with HLA-A*33:01 (setting [2]); 183 nM with HLA-A*31:01 (setting [2]); 1170 nM with HLA-A*68:01 (setting [2]); 50.3 nM with HLA-A*03:01 (setting [2]).
For SISSVLTILY, the Kd in the assay with HLA-A*11:01 (setting [2]) was determined as 107 nM; with HLA-A*33:01 (setting [2]) it was 2240 nM; with HLA-A*31:01 (setting [2]) it was 9230 nM; with HLA-A*68:01 (setting [2]) it was 907 nM; with HLA-A*03:01 (setting [2]), 206 nM.
In the case of RMLDTSEKY, the Kd was 9870 nM in the assay with HLA-A*11:01 (setting [2]); at least 68100 nM with HLA-A*33:01 (setting [2]); at least 66200 nM with HLA-A*31:01 (setting [2]); at least 77700 nM with HLA-A*68:01 (setting [2]); 4980 nM with HLA-A*03:01 (setting [2]).
Take MSHLKVALY: the Kd with HLA-A*11:01 (setting [2]) came out at 1690 nM; with HLA-A*33:01 (setting [2]), 18100 nM; with HLA-A*31:01 (setting [2]) it was 703 nM; with HLA-A*68:01 (setting [2]), 147 nM; with HLA-A*03:01 (setting [2]), 320 nM.
For the sequence SADASTFLK, the Kd with HLA-A*11:01 (setting [1]) was found to be 2.97 nM; with HLA-A*33:01 (setting [1]) it was 2570 nM; with HLA-A*31:01 (setting [1]), 99.8 nM; with HLA-A*68:01 (setting [1]), 12 nM; with HLA-A*03:01 (setting [1]), 16.4 nM.
Regarding DTQMRTPLHK, the Kd is 78 nM with HLA-A*11:01 (setting [2]); 12500 nM in the assay with HLA-A*33:01 (setting [2]); at least 52100 nM in the assay with HLA-A*31:01 (setting [2]); 1480 nM in the assay with HLA-A*68:01 (setting [2]); 4160 nM in the assay with HLA-A*03:01 (setting [2]).
The like results for PSTDVNKQNK were, in that order, 3610 nM, at least 70000 nM, 4780 nM, at least 26800 nM and 1260 nM.

Values taken from the Immune Epitope Database (IEDB).
